{"source": "patent US20260258084A1", "about": "“New Peptides as Selective IL-23 Receptor Antagonists” (Sanofi, priority 2022, published 2026)", "note": "Starred links: 1 amine or outer side, 2 acyl side, 3 side chain; linkers in the order of their positions; H or OH if unused. Positions of bridges follow the written chain, without caps; N, C: chain ends. Non-standard residues stand in square brackets, D forms with d. Yde = (2S)-2-amino-3-[4-[2-(dimethylamino)ethoxy]phenyl]propanoic acid, CN(C)CCOc1ccc(C[C@H](N[*:1])C(=O)[*:2])cc1; Phe(4-OMe) = COc1ccc(C[C@H](N[*:1])C(=O)[*:2])cc1; Trp(7-Me) = Cc1cccc2c(C[C@H](N)C(=O)O)c[nH]c12; αMeLys(Me2) = CN(C)CCCC[C@](C)(N)C(=O)O; 2Nal = N[C@@H](Cc1ccc2ccccc2c1)C(=O)O; εLys = N[C@@H](CCCCN[*:1])C(=O)[*:2]; AEF = NCCOc1ccc(C[C@H](N)C(=O)O)cc1; NMe5Ava = CN(CCCCC(=O)[*:2])[*:1]; 3Pal = N[C@@H](Cc1cccnc1)C(=O)O; NMeN = CN[C@@H](CC(N)=O)C(=O)O; αMeL = CC(C)C[C@](C)(N)C(=O)O; Thp = NC1(C(=O)O)CCOCC1; Aib = CC(C)(N)C(=O)O; Ahx = NCCCCCC(=O)O; Ava = NCCCCC(=O)O; βAla = NCCC(=O)O; Sar = CNCC(=O)O"}
{"target": "T1, IL-23 receptor on the surface of HEK-Blue IL-23 cells (UniProt Q5VWK5 24-629, limits assumed)", "T1 sequence (looked up)": "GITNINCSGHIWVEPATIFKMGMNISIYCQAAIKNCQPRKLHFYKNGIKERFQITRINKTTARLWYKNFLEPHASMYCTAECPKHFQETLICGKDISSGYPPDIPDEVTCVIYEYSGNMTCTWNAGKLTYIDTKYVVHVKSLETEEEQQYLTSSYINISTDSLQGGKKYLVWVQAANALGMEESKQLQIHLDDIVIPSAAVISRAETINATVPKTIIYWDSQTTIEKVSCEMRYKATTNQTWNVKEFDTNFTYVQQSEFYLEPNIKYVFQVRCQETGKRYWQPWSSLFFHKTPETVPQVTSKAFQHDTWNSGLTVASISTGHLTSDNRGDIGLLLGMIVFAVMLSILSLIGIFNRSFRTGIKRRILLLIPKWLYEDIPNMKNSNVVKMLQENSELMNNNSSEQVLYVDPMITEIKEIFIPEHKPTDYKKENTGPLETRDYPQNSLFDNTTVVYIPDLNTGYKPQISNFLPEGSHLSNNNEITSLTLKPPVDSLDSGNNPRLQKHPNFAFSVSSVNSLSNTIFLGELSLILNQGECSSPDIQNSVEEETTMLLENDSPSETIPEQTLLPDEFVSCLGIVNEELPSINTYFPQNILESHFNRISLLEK", "assay": "cell-based or functional assay", "units": {"pSTAT3 (nM)": "nM"}}
{"binder": "[Ava]C[εLys](Ac)WK(Ac)C[Yde][2Nal][αMeLys(Me2)]EN[3Pal][Sar]-NH2 (lactam N-10; disulfide 2-6; also: Cys2 bonded to epsilon-NH2 of Lys3, Lys3 alpha-amine acetylated (K[aAc]))", "note": "[Compound of SEQ ID NO: 59]", "pSTAT3 (nM)": 0.07}
{"binder": "[Ahx]C[Ava]WQC[AEF][2Nal][Aib]DAG-NH2 (lactam N-10; disulfide 2-6; SMILES C[C@H](NC(=O)[C@@H]1CC(=O)NCCCCCC(=O)N[C@H]2CSSC[C@H](NC(=O)[C@H](CCC(N)=O)NC(=O)[C@H](Cc3c[nH]c4ccccc34)NC(=O)CCCCNC2=O)C(=O)N[C@@H](Cc2ccc(OCCN)cc2)C(=O)N[C@@H](Cc2ccc3ccccc3c2)C(=O)NC(C)(C)C(=O)N1)C(=O)NCC(N)=O)", "note": "[Compound of SEQ ID NO: 53]", "pSTAT3 (nM)": 60.8}
{"binder": "[Ava]CNT[Trp(7-Me)]K(Ac)C[Yde][2Nal][Thp]ENHX-NH2 (lactam N-11; disulfide 2-7; not fully specified (residue 14); printed as Apt(§1)-C(@2)-N-T-Wim-K[Ac]-C(@2)-Yde-Nal-Thp-E(§1)-N—H-Mep-NH2)", "note": "[Compound of SEQ ID NO: 55]", "pSTAT3 (nM)": 0.95}
{"binder": "[Ava]CNT[Trp(7-Me)]K(Ac)C[Yde][2Nal][Thp]ES[3Pal][Sar]-NH2 (lactam N-11; disulfide 2-7; SMILES CC(=O)NCCCC[C@@H]1NC(=O)[C@H](Cc2c[nH]c3c(C)cccc23)NC(=O)[C@H]([C@@H](C)O)NC(=O)[C@H](CC(N)=O)NC(=O)[C@@H]2CSSC[C@H](NC1=O)C(=O)N[C@@H](Cc1ccc(OCCN(C)C)cc1)C(=O)N[C@@H](Cc1ccc3ccccc3c1)C(=O)NC1(CCOCC1)C(=O)N[C@H](C(=O)N[C@@H](CO)C(=O)N[C@@H](Cc1cccnc1)C(=O)N(C)CC(N)=O)CCC(=O)NCCCCC(=O)N2)", "note": "[Compound of SEQ ID NO: 56]", "pSTAT3 (nM)": 0.16}
{"binder": "[Ava]CNT[Trp(7-Me)]K(Ac)C[Yde][2Nal][αMeLys(Me2)]EN[dL]-NH2 (lactam N-11; disulfide 2-7; SMILES CC(=O)NCCCC[C@@H]1NC(=O)[C@H](Cc2c[nH]c3c(C)cccc23)NC(=O)[C@H]([C@@H](C)O)NC(=O)[C@H](CC(N)=O)NC(=O)[C@@H]2CSSC[C@H](NC1=O)C(=O)N[C@@H](Cc1ccc(OCCN(C)C)cc1)C(=O)N[C@@H](Cc1ccc3ccccc3c1)C(=O)N[C@@](C)(CCCCN(C)C)C(=O)N[C@H](C(=O)N[C@@H](CC(N)=O)C(=O)N[C@H](CC(C)C)C(N)=O)CCC(=O)NCCCCC(=O)N2)", "note": "[Compound of SEQ ID NO: 54]", "pSTAT3 (nM)": 2.59}
{"binder": "[Ava]CNTWK(Ac)C[Yde][2Nal][αMeLys(Me2)]EN[3Pal][Sar]-NH2 (lactam N-11; disulfide 2-7; SMILES CC(=O)NCCCC[C@@H]1NC(=O)[C@H](Cc2c[nH]c3ccccc23)NC(=O)[C@H]([C@@H](C)O)NC(=O)[C@H](CC(N)=O)NC(=O)[C@@H]2CSSC[C@H](NC1=O)C(=O)N[C@@H](Cc1ccc(OCCN(C)C)cc1)C(=O)N[C@@H](Cc1ccc3ccccc3c1)C(=O)N[C@@](C)(CCCCN(C)C)C(=O)N[C@H](C(=O)N[C@@H](CC(N)=O)C(=O)N[C@@H](Cc1cccnc1)C(=O)N(C)CC(N)=O)CCC(=O)NCCCCC(=O)N2)", "note": "[Compound of SEQ ID NO: 58]", "pSTAT3 (nM)": 0.1}
{"binder": "[Ava]CNT[Trp(7-Me)]K(Ac)C[Yde][2Nal][Thp]EN[3Pal]-NH2 (lactam N-11; disulfide 2-7; SMILES CC(=O)NCCCC[C@@H]1NC(=O)[C@H](Cc2c[nH]c3c(C)cccc23)NC(=O)[C@H]([C@@H](C)O)NC(=O)[C@H](CC(N)=O)NC(=O)[C@@H]2CSSC[C@H](NC1=O)C(=O)N[C@@H](Cc1ccc(OCCN(C)C)cc1)C(=O)N[C@@H](Cc1ccc3ccccc3c1)C(=O)NC1(CCOCC1)C(=O)N[C@H](C(=O)N[C@@H](CC(N)=O)C(=O)N[C@@H](Cc1cccnc1)C(N)=O)CCC(=O)NCCCCC(=O)N2)", "note": "[Compound of SEQ ID NO: 51]", "pSTAT3 (nM)": 0.05}
{"binder": "[Ava]CNT[Trp(7-Me)]K(Ac)C[Yde][2Nal][Thp]ENH[βAla]-NH2 (lactam N-11; disulfide 2-7; SMILES CC(=O)NCCCC[C@@H]1NC(=O)[C@H](Cc2c[nH]c3c(C)cccc23)NC(=O)[C@H]([C@@H](C)O)NC(=O)[C@H](CC(N)=O)NC(=O)[C@@H]2CSSC[C@H](NC1=O)C(=O)N[C@@H](Cc1ccc(OCCN(C)C)cc1)C(=O)N[C@@H](Cc1ccc3ccccc3c1)C(=O)NC1(CCOCC1)C(=O)N[C@H](C(=O)N[C@@H](CC(N)=O)C(=O)N[C@@H](Cc1c[nH]cn1)C(=O)NCCC(N)=O)CCC(=O)NCCCCC(=O)N2)", "note": "[Compound of SEQ ID NO: 49]", "pSTAT3 (nM)": 1.79}
{"binder": "[Ava]CNT[Trp(7-Me)]K(Ac)C[Yde][2Nal][αMeL]ENH[βAla]-NH2 (lactam N-11; disulfide 2-7; SMILES CC(=O)NCCCC[C@@H]1NC(=O)[C@H](Cc2c[nH]c3c(C)cccc23)NC(=O)[C@H]([C@@H](C)O)NC(=O)[C@H](CC(N)=O)NC(=O)[C@@H]2CSSC[C@H](NC1=O)C(=O)N[C@@H](Cc1ccc(OCCN(C)C)cc1)C(=O)N[C@@H](Cc1ccc3ccccc3c1)C(=O)N[C@@](C)(CC(C)C)C(=O)N[C@H](C(=O)N[C@@H](CC(N)=O)C(=O)N[C@@H](Cc1c[nH]cn1)C(=O)NCCC(N)=O)CCC(=O)NCCCCC(=O)N2)", "note": "[Compound of SEQ ID NO: 50]", "pSTAT3 (nM)": 0.98}
{"binder": "[Ava]CNT[Trp(7-Me)]QC[Yde][2Nal][Aib]ENH-NH2 (lactam N-11; disulfide 2-7; SMILES Cc1cccc2c(C[C@@H]3NC(=O)[C@H]([C@@H](C)O)NC(=O)[C@H](CC(N)=O)NC(=O)[C@@H]4CSSC[C@H](NC(=O)[C@H](CCC(N)=O)NC3=O)C(=O)N[C@@H](Cc3ccc(OCCN(C)C)cc3)C(=O)N[C@@H](Cc3ccc5ccccc5c3)C(=O)NC(C)(C)C(=O)N[C@H](C(=O)N[C@@H](CC(N)=O)C(=O)N[C@@H](Cc3c[nH]cn3)C(N)=O)CCC(=O)NCCCCC(=O)N4)c[nH]c12)", "note": "[Compound of SEQ ID NO: 52]", "pSTAT3 (nM)": 1.25}
{"binder": "XCNTWQCXXXENN (Apt(§1)-C(@2)-N-T-W-Q-C(@2)-Yae-Nal-Aib-E(§1)-N-N-NH2)", "note": "[Compound of SEQ ID NO: 5]", "pSTAT3 (nM)": 9.66}
{"binder": "[NMe5Ava]C[εLys](Ac)[Trp(7-Me)]K(Ac)C[Yde][2Nal][Aib]ENH-NH2 (lactam N-10; disulfide 2-6; also: Cys2 bonded to epsilon-NH2 of Lys3, Lys3 alpha-amine acetylated (K[aAc]))", "note": "[Compound of SEQ ID NO: 60]", "pSTAT3 (nM)": 0.16}
{"binder": "[Ahx]C[NMeN]TWQC[Phe(4-OMe)][2Nal][Aib]DNN-NH2 (lactam N-11; disulfide 2-7; SMILES COc1ccc(C[C@@H]2NC(=O)[C@@H]3CSSC[C@H](NC(=O)CCCCCNC(=O)C[C@@H](C(=O)N[C@@H](CC(N)=O)C(=O)N[C@@H](CC(N)=O)C(N)=O)NC(=O)C(C)(C)NC(=O)[C@H](Cc4ccc5ccccc5c4)NC2=O)C(=O)N(C)[C@@H](CC(N)=O)C(=O)N[C@@H]([C@@H](C)O)C(=O)N[C@@H](Cc2c[nH]c4ccccc24)C(=O)N[C@@H](CCC(N)=O)C(=O)N3)cc1)", "note": "[Compound of SEQ ID NO: 6]", "pSTAT3 (nM)": 72.9}
